Measured values from PMC6952060.

Molecular target: Sulfolobus acidocaldarius soluble FlaF (sFlaF) (Sulfolobus acidocaldarius)
Assay: SEC

## Sulfolobus acidocaldarius soluble FlaF (sFlaF) (domain or fragment)
  stoichiometry N: 2
